Experiment [1] concerns the target T1, human wild-type LFA-1 on cells (human, UniProt P20701 26-1170; P05107 23-769).
T1 construct: also called LFA-1 on human PBMCs
The experiment is described as follows: inhibition of ICAM binding to human PBMCs; average of four experiments.

Experiment [2] has as its target T2, mouse LFA-1 on the EL4 cell line (mouse, UniProt P24063 24-1162; P11835 24-771).
T2 construct: whole, on cells; also called Mouse EL4 Cell line
The experiment is described as follows: binding to EL4 cell line, no treatment.

Experiment [3] has as its target T3, rabbit LFA-1 on PBMCs (rabbit, UniProt A0A5F9C4C9 27-1127; A0A5F9CF43 23-747).
T3 construct: whole, on cells; also called rabbit PBMCs
The experiment is described as follows: flow cytometry on PBMCs, no treatment. The procedure:
Whole blood from healthy animals (rat, sheep, rabbit, dog, rhesus monkey, cynomologus monkey and chimpanzee) were obtained from Valley Biomedical Products and Services, Inc. PBMCs were isolated from whole blood and cultured in low adherent 6-well plates overnight in RPMI 1640 with 10% FBS, 1× Pen/Strep. PBMCs were harvested, washed once with Hanks' Balanced Salt Solution (HBSS) 1×, 20 mM HEPES buffer containing 10 mM EDTA, and then twice with HBS. Cells were resuspended in HBSS at 2×10⁶ cells/ml, 100 μl aliquots per well were added into 96-well plates (Costar round bottom). After spinning down, cell pellets were resuspended in 50 μl activating buffer (HBSS, 10 mM MgCl₂, 2 mM EGTA) or inactivating buffer (HBSS, 2 mM CaCl₂, 2 mM MgCl₂). For certain wells, PMA or DTT was added to a final concentration of 10 ng/ml or 500 μM, respectively. Cells were then incubated at 37° C. for 20 minutes.
Antibodies that recognized CD-11a from the particular species (human, sheep, dog, rat, rabbit) (1:100 dilution) were used as positive controls. […] Cells were incubated at 4° C. for 30 minutes, then washed twice with 220 μl/well HBSS containing 0.05% NaN₃, resuspended in 200 μl/well HBSS and analyzed using the GUAVA EXPRESS™ protocol (Guava Technologies, Inc., Hayward Calif.).

T2 sequence (P24063 24-1162, chain 1 of 2): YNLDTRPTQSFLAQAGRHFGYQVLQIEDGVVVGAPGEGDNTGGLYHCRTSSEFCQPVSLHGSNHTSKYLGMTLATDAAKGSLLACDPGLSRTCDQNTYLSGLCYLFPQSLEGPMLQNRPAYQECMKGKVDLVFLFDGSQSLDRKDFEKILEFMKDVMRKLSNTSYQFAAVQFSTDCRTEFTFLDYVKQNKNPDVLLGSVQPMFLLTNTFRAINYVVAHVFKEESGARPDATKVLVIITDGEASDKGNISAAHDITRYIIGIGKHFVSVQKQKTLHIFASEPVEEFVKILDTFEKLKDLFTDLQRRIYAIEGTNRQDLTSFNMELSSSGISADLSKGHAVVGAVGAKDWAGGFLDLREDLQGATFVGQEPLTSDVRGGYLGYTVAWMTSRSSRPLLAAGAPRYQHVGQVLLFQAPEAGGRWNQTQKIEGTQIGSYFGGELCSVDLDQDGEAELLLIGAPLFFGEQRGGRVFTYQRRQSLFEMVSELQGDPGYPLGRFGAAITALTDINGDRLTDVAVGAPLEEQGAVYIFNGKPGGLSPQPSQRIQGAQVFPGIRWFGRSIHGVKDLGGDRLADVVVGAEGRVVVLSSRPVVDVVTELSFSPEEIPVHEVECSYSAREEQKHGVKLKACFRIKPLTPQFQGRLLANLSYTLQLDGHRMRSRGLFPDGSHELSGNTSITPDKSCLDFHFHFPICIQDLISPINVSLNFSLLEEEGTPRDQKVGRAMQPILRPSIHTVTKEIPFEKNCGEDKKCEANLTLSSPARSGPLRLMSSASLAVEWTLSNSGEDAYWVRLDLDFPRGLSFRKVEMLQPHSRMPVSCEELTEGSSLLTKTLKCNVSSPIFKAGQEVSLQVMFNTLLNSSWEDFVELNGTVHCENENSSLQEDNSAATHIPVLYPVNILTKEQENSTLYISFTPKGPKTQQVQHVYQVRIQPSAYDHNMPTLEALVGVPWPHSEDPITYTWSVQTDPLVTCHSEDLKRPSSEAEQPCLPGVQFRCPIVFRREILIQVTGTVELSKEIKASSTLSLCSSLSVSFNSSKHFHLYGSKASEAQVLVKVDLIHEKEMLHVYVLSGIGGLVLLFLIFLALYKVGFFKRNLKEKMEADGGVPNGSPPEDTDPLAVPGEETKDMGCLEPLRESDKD
T2 sequence (P11835 24-771, chain 2 of 2): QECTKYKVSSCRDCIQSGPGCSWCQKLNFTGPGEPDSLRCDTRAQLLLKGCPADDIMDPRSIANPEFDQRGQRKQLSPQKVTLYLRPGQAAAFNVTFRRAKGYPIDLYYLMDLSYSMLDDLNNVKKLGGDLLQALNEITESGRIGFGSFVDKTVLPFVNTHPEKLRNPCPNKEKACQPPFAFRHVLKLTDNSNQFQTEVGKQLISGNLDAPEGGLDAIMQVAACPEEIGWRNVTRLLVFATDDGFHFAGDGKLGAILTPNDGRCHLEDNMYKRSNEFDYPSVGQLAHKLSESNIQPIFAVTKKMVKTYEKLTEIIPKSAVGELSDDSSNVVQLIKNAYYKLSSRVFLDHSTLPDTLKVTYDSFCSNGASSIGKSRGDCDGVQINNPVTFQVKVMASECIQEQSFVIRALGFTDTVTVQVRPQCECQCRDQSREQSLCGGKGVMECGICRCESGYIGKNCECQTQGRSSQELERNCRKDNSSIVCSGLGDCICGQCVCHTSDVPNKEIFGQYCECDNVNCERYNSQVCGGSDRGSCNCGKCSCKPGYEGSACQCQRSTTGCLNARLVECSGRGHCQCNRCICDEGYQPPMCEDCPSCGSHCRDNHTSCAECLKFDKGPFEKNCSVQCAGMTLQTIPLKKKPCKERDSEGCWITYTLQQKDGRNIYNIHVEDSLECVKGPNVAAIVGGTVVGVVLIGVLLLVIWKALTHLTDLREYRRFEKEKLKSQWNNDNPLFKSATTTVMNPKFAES
T1 sequence (P20701 other isoform, or with tags, fused parts or gaps limits assumed, chain 1 of 2): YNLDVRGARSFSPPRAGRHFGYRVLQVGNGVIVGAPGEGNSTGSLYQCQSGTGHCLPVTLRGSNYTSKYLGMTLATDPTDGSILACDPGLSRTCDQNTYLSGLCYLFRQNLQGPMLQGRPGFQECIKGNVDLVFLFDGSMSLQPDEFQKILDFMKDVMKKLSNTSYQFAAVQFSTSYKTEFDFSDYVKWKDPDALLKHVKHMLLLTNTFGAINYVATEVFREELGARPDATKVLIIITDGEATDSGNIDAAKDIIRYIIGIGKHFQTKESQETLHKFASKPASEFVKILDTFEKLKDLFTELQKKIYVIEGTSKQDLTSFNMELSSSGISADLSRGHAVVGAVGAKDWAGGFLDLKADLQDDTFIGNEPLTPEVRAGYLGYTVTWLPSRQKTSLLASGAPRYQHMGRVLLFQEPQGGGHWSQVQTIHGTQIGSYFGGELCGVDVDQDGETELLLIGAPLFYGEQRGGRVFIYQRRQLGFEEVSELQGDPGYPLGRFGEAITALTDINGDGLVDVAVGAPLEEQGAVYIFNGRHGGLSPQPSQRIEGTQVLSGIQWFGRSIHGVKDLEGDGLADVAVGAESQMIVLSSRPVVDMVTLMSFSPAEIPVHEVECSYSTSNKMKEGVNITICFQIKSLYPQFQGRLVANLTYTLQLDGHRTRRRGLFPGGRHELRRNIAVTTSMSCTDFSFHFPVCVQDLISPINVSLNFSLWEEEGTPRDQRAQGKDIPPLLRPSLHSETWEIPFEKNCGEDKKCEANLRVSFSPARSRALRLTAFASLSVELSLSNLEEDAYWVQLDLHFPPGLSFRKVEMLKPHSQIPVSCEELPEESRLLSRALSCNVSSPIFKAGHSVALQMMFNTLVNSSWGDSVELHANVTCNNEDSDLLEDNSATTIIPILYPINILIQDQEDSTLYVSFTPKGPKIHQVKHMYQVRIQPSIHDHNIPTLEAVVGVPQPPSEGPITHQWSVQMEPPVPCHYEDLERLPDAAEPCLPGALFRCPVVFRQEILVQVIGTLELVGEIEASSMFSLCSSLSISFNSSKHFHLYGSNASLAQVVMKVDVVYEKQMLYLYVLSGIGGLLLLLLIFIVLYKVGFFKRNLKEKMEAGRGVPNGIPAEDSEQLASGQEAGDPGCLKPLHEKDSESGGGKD
T1 sequence (P05107 other isoform, or with tags, fused parts or gaps limits assumed, chain 2 of 2): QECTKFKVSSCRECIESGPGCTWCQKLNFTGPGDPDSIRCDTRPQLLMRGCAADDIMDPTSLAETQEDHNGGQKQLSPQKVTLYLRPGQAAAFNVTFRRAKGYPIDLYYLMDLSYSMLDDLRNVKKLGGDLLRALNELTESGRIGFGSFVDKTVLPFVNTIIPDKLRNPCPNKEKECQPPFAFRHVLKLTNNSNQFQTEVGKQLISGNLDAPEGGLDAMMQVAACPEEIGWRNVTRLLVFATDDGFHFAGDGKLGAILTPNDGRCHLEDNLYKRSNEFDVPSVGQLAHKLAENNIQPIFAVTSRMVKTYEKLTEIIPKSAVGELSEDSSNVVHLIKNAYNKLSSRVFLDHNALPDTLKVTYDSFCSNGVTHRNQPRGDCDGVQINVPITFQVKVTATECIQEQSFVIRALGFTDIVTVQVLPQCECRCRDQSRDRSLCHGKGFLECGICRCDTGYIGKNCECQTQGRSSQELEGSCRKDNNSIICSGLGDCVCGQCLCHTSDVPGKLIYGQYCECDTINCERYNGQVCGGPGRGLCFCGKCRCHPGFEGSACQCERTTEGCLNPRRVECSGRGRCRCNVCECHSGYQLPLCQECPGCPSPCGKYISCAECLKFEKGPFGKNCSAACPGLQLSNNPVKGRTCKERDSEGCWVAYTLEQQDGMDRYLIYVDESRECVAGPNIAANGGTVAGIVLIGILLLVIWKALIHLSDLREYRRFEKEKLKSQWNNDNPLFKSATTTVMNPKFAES

B1: D2-57 IgG1 (antibody, V domains shown)
VH: EVQLLESGGGLVQPGGSLRLSCAASGFTFSRYVMWWVRQAPGKGLEWVSYIWPSGGNTYYADSVKGRFTISRDNSKNTLYLQMNSLRAEDTAVYYCASSYDFWSNAFDIWGQGTMVTVSS
VL: DIQMTQSPSSLSASVGDRVTITCRASQSIGSYLNWYQQKTGKAPKALIYAASSLQSGVPSRFSGSGSGTDFTLTISSLQLEDFATYYCQQSYSTPSFGQGTKVEIKR
Take B1: the IC50 in experiment [1] worked out at 0.54 nM.

B2: DX-2001 (germlined variant of D2-57, IgG4) (antibody, V domains shown)
VH: EVQLLESGGGLVQPGGSLRLSCAASGFTFSRYVMWWVRQAPGKGLEWVSYIWPSGGNTYYADSVKGRFTISRDNSKNTLYLQMNSLRAEDTAVYYCASSYDFWSNAFDIWGQGTMVTVSS
VL: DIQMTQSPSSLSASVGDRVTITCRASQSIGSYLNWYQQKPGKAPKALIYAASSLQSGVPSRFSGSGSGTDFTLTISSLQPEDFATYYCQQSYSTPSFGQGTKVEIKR
In the case of B2, the binding result in experiment [2] is given as “no binding”; in experiment [3] it was “no binding (tested: 10 µg/ml)”.

These data come from patent US20080069777A1 (CBR INSTITUTE FOR BIOMEDICAL RESEARCH, published 2008).
